In paper doi:10.1101/2025.08.20.671286:

Target: apoptosis-inducing factor, mitochondrial (AIFM1) (human) (UniProt O95831)
Assay: cross-linking

**Q.** How did the stoichiometry N turn out when “apoptosis-inducing factor, mitochondrial (AIFM1) (from UniProt O95831 103-613) (natural protein)” was run?
**A.** 2
